Experimental data: PMC3660597, “Investigation of Specificity Determinants in Bacterial tRNA-Guanine Transglycosylase Reveals Queuine, the Substrate of Its Eucaryotic Counterpart, as Inhibitor” (PLoS ONE, 2013)
pKd: −log10 of the molar value.

System: Tgt "wild type" (tRNA-guanine transglycosylase) (Zymomonas mobilis)
Assay: MST
Conditions: buffer, salt, pH and temperature not given in the material

**Q.** tRNATyr was tested. Which pKd did it give?
**A.** 7.44
